Data: patent US20230358742A1 (MIT, published 2023)

T1: His-LSP (LMOf2365_0639, Listeria monocytogenes surface protein, with N-terminal 6x-histidine tag) (Listeria monocytogenes)
T1 construct: also called Listeria surface protein
T1 chain: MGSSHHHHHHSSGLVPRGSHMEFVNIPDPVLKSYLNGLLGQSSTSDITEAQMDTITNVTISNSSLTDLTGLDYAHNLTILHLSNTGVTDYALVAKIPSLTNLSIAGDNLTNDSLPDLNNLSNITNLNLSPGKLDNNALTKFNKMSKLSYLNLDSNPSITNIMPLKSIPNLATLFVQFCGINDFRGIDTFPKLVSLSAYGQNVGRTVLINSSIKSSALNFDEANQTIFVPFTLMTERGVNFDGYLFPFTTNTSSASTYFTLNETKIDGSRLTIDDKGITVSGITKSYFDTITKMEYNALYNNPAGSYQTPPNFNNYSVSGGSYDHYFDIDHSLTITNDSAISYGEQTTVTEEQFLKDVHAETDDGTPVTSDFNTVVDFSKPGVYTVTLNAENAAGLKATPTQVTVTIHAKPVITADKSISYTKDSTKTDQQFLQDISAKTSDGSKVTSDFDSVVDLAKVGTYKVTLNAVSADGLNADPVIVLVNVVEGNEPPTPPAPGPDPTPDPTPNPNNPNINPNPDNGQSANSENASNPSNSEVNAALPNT

B1: rcSso7d.LSP.3 (yeast-surface displayed) (designed binder)
chain: MATVKFTYQGEEKQVDISKIKIAKRYGQIIDFSYDEGGGARGWGIVSEKDAPKELLQMLEKQ
notes: also called clone 3; Clone 3
B2: rcSso7d.LSP.7 (designed binder)
chain: MATVKFTYQGEEKQVDISKIKIAVYRYGQYIYFSYDEGGGASGIGKVSEKDAPKELLQMLEKQ
notes: also called clone 7; Clone 7
B3: rcSso7d.LSP.5 (designed binder)
chain: MATVKFTYQGEEKQVDISKIKWVRRAGQWIDFAYDEGGGAKGYGIVSEKDAPKELLQCWKS
notes: also called clone 5; Clone 5

Legend:
[1] = target: T1, His-LSP (LMOf2365_0639, Listeria …); experiment: FACS histograms, clonal yeast-surface display, 20 nM of LSP (FIG. 3B)
[2] = target: T1, His-LSP (LMOf2365_0639, Listeria …); experiment: flow cytometry, clonal yeast-surface display, 20 nM His-LSP

Binder	binding result [1]	binding result [2]
B1	binds	
B2		binds
MATVKFTYQGEEKQVDISKIKDVGRHGQHICFWL (designed binder, also called clone 6; Clone 6) [rcSso7d.LSP.6]		binds
MATVKFTYQGEEKQVDISKIKDVGRHGQKICFLL (designed binder, also called clone 2; Clone 2) [rcSso7d.LSP.2]	binds	
MATVKFTYQGEEKQVDISKIKDVGRSGQNICFYL (designed binder, also called clone 1; Clone 1) [rcSso7d.LSP.1]		binds
MATVKFTYQGEEKQVDISKIKDVGRYGQRICFWL (designed binder, also called clone 4; Clone 4) [rcSso7d.LSP.4]	binds	
B3		binds
